US20260085127A1 (BRIGHTPATH BIOTHERAPEUTICS, published 2026)

How the values were obtained:
[1] = molecular target: T1, biotinylated human TIM-3-Fc antigen (in-house product, SEQ ID No: 118) (human, biotinylated); experiment: competition ELISA: human Galectin-9 coated, biotinylated human TIM-3-Fc pre-mixed with the antibody dilution series, Streptavidin-HRP, A450; blocked ligand: human Galectin-9
[2] = molecular target: T2, human CD39 (Accession No. NM_001776.6) expressed on cells (human, UniProt P49961 1-510); experiment: flow cytometry, Jurkat/CD39 cells, KD from MFI
T2 construct: whole, on cells; On Jurkat, 293T or SK-MEL28 cells; also called Jurkat/CD39; 293T/CD39
T2 sequence (looked up): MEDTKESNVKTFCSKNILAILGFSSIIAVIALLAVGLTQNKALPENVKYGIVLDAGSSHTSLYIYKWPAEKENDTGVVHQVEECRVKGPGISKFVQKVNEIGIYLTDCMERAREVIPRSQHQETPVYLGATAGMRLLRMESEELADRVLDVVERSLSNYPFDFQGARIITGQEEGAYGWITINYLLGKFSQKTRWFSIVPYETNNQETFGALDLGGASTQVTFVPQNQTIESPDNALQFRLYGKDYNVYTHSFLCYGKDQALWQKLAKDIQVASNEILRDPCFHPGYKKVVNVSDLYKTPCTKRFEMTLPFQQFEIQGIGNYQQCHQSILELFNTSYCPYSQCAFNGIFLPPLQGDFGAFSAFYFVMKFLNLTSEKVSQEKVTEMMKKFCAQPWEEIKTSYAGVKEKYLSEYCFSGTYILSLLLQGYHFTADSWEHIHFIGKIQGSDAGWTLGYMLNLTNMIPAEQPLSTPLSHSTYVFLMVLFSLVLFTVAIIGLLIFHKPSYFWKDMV

[3] = molecular target: T1, biotinylated human TIM-3-Fc antigen …; experiment: flow cytometry, inhibition of biotinylated TIM-3-Fc binding to phosphatidylserine on apoptotic Jurkat cells
[4] = molecular target: T3, recombinant human CD39 (in-house product, 38 to 478 aa of Accession No. NM_001776.6) (human, UniProt P49961 38-478); experiment: SPR Biacore8K, antibody captured on anti-human IgG, antigen as analyte
T3 construct: also called rhCD39; human CD39-ECD; not shown: Myc and His tags at the C-terminus are named only for the PE-lab
T3 sequence (looked up): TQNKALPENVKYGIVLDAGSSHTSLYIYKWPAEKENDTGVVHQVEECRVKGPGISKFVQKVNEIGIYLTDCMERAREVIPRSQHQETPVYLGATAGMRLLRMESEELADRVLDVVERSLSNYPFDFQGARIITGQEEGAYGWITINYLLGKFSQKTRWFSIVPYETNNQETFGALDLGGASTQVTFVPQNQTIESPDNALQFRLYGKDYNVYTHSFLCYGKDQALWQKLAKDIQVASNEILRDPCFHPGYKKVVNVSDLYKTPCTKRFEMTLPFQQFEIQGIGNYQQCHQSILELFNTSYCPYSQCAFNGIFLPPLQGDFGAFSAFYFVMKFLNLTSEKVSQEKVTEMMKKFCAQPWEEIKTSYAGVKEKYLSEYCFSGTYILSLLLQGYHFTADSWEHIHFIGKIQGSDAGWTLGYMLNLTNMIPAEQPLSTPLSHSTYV

[5] = molecular target: T4, human TIM-3 (Accession No. JX049979.1) stably expressed on cells (human, UniProt Q8TDQ0 22-301); experiment: flow cytometry, Jurkat/TIM-3 cells, KD from MFI
T4 construct: whole, on cells; On Jurkat or 293T cells; also called Jurkat/TIM-3; 293T/TIM-3

B1: T86_Hu003_Ct (bispecific antibody)
chain 1: QIQLVQSGPELKKPGETVKISCEASGYTFINYGMNWVKQAPGKGLKWMGWINTYTGEPTYADDFKGRFAFSLETSANTAYLQINNLKNEDTATYFCARKGYYGYPNYYAMDYWGQGTSVTVSSGGGGSGGGGSGGGGSGGGGSDIVMTQSQKFMSTSVGDRVSITCKASQNVGTAVAWYQQKPGQSPKLLIYSASNRYTGVPDRFTGSGSGTDFTLTISNMQSEDLADYFCQQYSSYPITFGTGTKLEIK
chain 2: QVQLQESGGGLVKPGGSLKLSCAASGFTFSSYYMSWVRQTPDKRLEWVATISNSGGSTYYPDSVKDRFTISRDNAKNTLYLQMSSLKSEDTAMYYCARDPYYTNYVPMDYWGQGTMVTVSSGGGGSGGGGSGGGGSGGGGSDIVMTQSPSFLSASVGDRVTITCKASQYVDTYVAWYQQRPGKAPKPLIYSASTRHTGVPSRFSGSGSGTEFTLTISSLQPEDFATYFCAQYSSSPLTFGGGTKLELK
In the case of B1, the “IC50 (read off the curve)” value [1] is reported as about 2 nM, the Kd [2] is reported as 18.8 nM and the IC50 [3] is reported as 30.8 nM. It also gave a Kd [4] of 1.74 nM and a Kd [5] of 2.77 nM.

B2: mAnE67_Hu003_Ct (bispecific antibody)
chain 1: EVQLVESGGGLVKPGGSRKLSCAASGFTFSDYGMHWVRQAPEKGLEWVAYISSGSSIIYYADTVKGRFTISRDNAKNTLFLQMTGLRSEDTAMYYCARKDYPYAMDYWGQGTSLAVSSGGGGSGGGGSGGGGSGGGGSSIVMTQTPKFMSTSVGDRVSVTCKASQNVGTNVAWYQQKPGQSPKALIYWASNRFTGVPDRFTGSGSGTDFTLTISNVQSEDLADYFCQQYSSSPYTFGSGTKLEIK
chain 2: QVQLQESGGGLVKPGGSLKLSCAASGFTFSSYYMSWVRQTPDKRLEWVATISNSGGSTYYPDSVKDRFTISRDNAKNTLYLQMSSLKSEDTAMYYCARDPYYTNYVPMDYWGQGTMVTVSSGGGGSGGGGSGGGGSGGGGSDIVMTQSPSFLSASVGDRVTITCKASQYVDTYVAWYQQRPGKAPKPLIYSASTRHTGVPSRFSGSGSGTEFTLTISSLQPEDFATYFCAQYSSSPLTFGGGTKLELK
With B2 the Kd [2] was 2.69 nM, the IC50 [3] was 24.7 nM and the Kd [4] was 2.26 nM. For the same binder, the Kd [5] was 1.49 nM.

B3: Tre291_Hu003_Ct (bispecific antibody)
chain 1: QVQLKQSGPGLVQPSQSLSITCTVSGFSLTSYGVHWVRQSPGKGLEWLGVIWRRGSTDYNAAFMSRLSITKDTSKSQVFFKMNSLQTDDTAIYYCAGVRGDAMDYWGQGTSVTVSSGGGGSGGGGSGGGGSGGGGSDIVMTQSHKSMSTSVGDRVSVTCKASQNVGTNVAWYQQKPGQSPKALIYSASYRYSGVPDRFTGSGSGTDFTLTISNVQSEDLAEYFCQQYNSYPLTFGGGTKLEIK
chain 2: QVQLQESGGGLVKPGGSLKLSCAASGFTFSSYYMSWVRQTPDKRLEWVATISNSGGSTYYPDSVKDRFTISRDNAKNTLYLQMSSLKSEDTAMYYCARDPYYTNYVPMDYWGQGTMVTVSSGGGGSGGGGSGGGGSGGGGSDIVMTQSPSFLSASVGDRVTITCKASQYVDTYVAWYQQRPGKAPKPLIYSASTRHTGVPSRFSGSGSGTEFTLTISSLQPEDFATYFCAQYSSSPLTFGGGTKLELK
With B3 the “IC50 (read off the curve)” value [1] was about 1 nM, the Kd [2] was 22.6 nM and the IC50 [3] was 28.3 nM. For the same binder, the Kd [4] was 2.79 nM and the Kd [5] was 2.13 nM.

B4: I67_Hu003_Ct (bispecific antibody)
chain 1: DVQLQESGPSLVQPSQSLSINCTVSGFSLSSYGVHWVRQSPGKGLEWLGVIWRRGSTDYNAAFMSRLSITKDNSKSQVFFKMNRLQADDTATYYCAKGISTATSWFAYWGQGTLVTVSAGGGGSGGGGSGGGGSGGGGSDIVMTQSHKFMSTSVGDRVSVTCKASQNVGTNVAWYQQKPGQSPKALIYSASYRYSGVPDRFTGSGSGTDFTLTISNVQSEDLAEYFCQQYNSYPLTFGAGTKLELK
chain 2: QVQLQESGGGLVKPGGSLKLSCAASGFTFSSYYMSWVRQTPDKRLEWVATISNSGGSTYYPDSVKDRFTISRDNAKNTLYLQMSSLKSEDTAMYYCARDPYYTNYVPMDYWGQGTMVTVSSGGGGSGGGGSGGGGSGGGGSDIVMTQSPSFLSASVGDRVTITCKASQYVDTYVAWYQQRPGKAPKPLIYSASTRHTGVPSRFSGSGSGTEFTLTISSLQPEDFATYFCAQYSSSPLTFGGGTKLELK
For B4, the “IC50 (read off the curve)” value [1] was about 2 nM, the Kd [2] was 14.1 nM and the IC50 [3] was 27.2 nM. For the same binder, the Kd [4] was 1.63 nM and the Kd [5] was 1.86 nM.
